Molecular target: HLA-A1 (A*0101) (human)
Test: cell competition vs YLEPAC(FI)AKY, stripped CAA B-LCL, FACS

B1: PRAME peptide … (peptide)
peptide: ITDDQLLAL
modifications: not checked
Binder B1 has an IC50 of 1000 nM.
